Data reported in patent publication US20140186365A1.

B1: VH-3B11 (protein)
VH: EVQLVQSGAEVKKPGESLKISCKGSGYSFTSYWIGWVRQMPGKGLEWMGIVYPGDSDTRYSPSFQGQVTISAGKSISTAYLQWSSLKASDTAMYYCARPSMGATTWISAFDIWGQGTTVTVSSSASGAGS
B2: VH-3C2 (protein)
VH: QVQLQQSGPGLVKPSQTLSLTCAISGDSVSSKSAAWNWIRQSPSRGLEWLGRTYYRSKWYNDYVVSLRSRITVSPDTSKNQFSLQLNSVTPEDTAMYYCARTRGHIDLWGRGTLVTVSSSASGAGS
B3: VH-1C5 (protein)
VH: QVQLQQSGPGLVKPSQTLSLTCAISGDSVSSNSAAWNWIRQSPSRGLEWLGRTYYRSKWYNDYAVSVKSRITINPDTSKNQFSLQLNSVTPEDTAVYYCARTPSTGTLDCWGRGTLVTVSSSASGAGS
B4: VH-3E11 (protein)
VH: QVQLQQSGPGLVKPSQTLSLTCAISGDSVSGNSAAWNWIRQSPSRGLEWLGRTYYRSKWYIGYAASLQSRLAINADTSKNQLSLRLSSVTPEDTAVYYCVGRHYSGHSGAFDTWGHGTMVTVSSSASGAGS
B5: VH-4D6 (protein)
VH: EVQLVQSGAEVKKPGESLKISCKGSGYSFTSYWIGWVRQMPGKGLEWMGIIYPGDSDTRYSPSFQGQVTISADKSISTAYLQWSSLKASDTAMYYCARLDCSGGSCYYYYYGMDVWGQGTTVTVSSSASGAGS

These binders were tested against Human Serum Albumin (human) (UniProt P02768) (assay: BLI (Octet Red), HSA on sensor tips, VH domain in solution, 1:1 fit).
Sequence of UniProt P02768 (P02768 25-609 limits assumed): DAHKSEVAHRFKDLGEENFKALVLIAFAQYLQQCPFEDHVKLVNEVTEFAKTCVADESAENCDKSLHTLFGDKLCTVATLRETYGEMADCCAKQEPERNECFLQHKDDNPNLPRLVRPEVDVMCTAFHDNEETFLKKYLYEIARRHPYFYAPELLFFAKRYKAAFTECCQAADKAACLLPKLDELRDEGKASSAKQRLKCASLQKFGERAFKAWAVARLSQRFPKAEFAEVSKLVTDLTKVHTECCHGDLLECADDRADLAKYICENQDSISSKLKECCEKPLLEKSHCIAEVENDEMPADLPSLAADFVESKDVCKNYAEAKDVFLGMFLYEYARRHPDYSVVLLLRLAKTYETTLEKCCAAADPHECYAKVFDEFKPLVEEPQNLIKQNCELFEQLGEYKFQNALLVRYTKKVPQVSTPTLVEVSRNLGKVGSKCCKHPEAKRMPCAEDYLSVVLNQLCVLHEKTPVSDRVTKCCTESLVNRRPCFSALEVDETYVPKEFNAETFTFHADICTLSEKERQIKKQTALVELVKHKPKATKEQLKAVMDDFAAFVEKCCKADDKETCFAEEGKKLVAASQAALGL

Kd [nM] | koff [s⁻¹] | kon [M⁻¹ s⁻¹] | Binder
18.1 | 0.000126 | 6980 | B1
23.8 | 0.000155 | 6500 | B2
18.2 | 9.58e-05 | 5260 | B3
23.6 | 0.000133 | 5630 | B4
13.3 | 0.000141 | 10600 | B5

These binders were tested against Mouse Serum Albumin (mouse) (UniProt P07724) (assay: BLI (Octet Red), MSA on sensor tips, VH domain in solution, 1:1 fit).
Sequence of UniProt P07724 (P07724 25-608 limits assumed): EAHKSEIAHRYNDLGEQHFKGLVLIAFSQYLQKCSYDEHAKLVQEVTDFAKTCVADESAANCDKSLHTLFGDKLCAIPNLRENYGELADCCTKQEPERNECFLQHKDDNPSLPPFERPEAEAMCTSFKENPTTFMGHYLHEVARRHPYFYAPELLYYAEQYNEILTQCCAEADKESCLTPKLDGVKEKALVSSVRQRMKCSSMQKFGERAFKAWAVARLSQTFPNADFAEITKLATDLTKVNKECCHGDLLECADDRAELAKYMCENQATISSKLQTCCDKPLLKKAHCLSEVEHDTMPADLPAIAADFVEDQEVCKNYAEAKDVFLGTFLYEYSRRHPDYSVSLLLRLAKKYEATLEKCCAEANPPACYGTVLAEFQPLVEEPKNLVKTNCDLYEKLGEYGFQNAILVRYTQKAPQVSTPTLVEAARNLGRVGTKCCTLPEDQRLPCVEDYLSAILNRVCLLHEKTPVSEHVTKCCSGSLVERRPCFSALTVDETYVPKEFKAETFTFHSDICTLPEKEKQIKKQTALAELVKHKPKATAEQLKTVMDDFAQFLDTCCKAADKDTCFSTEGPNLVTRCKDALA

Kd [nM] | koff [s⁻¹] | kon [M⁻¹ s⁻¹] | Binder
9.61 | 7.88e-05 | 8200 | B1
31.8 | 0.000218 | 6870 | B2
6.32 | 5.42e-05 | 8570 | B3
39.3 | 0.000226 | 5750 | B4
12.6 | 0.000105 | 8340 | B5
